# Values quoted from earlier work as cited in publication PMC7825312.
# Target: Cys38 (UniProt position 39, SFLKECPSGRI)
# Assay: UV-vis
substance,measurement,value
Recoverin (Bos taurus),pKa,7.6
